B1: humanized monoclonal antibody h1F3 (antibody, V domains shown)
VH: QVQLVQSGAEVKKPGASVKVSCKASGYSFTSYWMHWVRQAPGQGLEWMGEINPSNGRTNYNEKFNTRVTMTRDTSTSTVYMELSSLRSEDTAVYYCVLYGNYVVYYTMDYWGQGT
VL: DIQLTQSPSFLSASVGDRVTITCSASTSVSYMEWYQQKPGKAPKLLIYTTSKLASGVPSRFSGSGSGTEFTLTISSLQPEDFATYYCHQWRNYPFTFGQGTKLEIKR
notes: also called humanized antibody; humanized PcrV antibody
B2: mouse monoclonal antibody 1F3 (antibody, V domains shown)
VH: QVQLQQPGAELVKPGASVKLSCKASGYSFTSYWMHWVKQRPGQGLEWIGEINPSNGRTNYNEKFNTKATLTVDTSSSTAYMQLSSLTSEDSAVYYCVLYGNYVVYYTMDYWGQGTSVTVSS
VL: QIVLTQSPTIMSASLGEEITLTCSASTSVSYMEWYQQKSGTSPKILIYTTSKLASGVPSRFSGSGSGTFYSLTISSVEAEDAADYYCHQWRNYPFTFGSGTKLEIK
notes: also called m1F3; mouse PcrV antibody
B3: mouse-human chimeric 1F3 antibody (antibody, V domains shown)
VH: B2 VH
VL: B2 VL
notes: Human IgG4Pro (S228P) heavy constant region and human Igkappa constant region; tested as culture supernatant; also called mouse-human chimeric antibody; mouse/human chimeric antibody
B4: antibody including the heavy chain of the template humanized antibody and the light chain of the mutant humanized antibody (antibody, V domains shown)
VH: QVQLVQSGAEVKKPGASVKVSCKASGYSFTSYWMHWVRQAPGQGLEWMGEINPSNGRTNYNEKFNTRVTMTRDTSTSTVYMELSSLRSEDTAVYYCARYGNYVVYYTMDYWGQGTTVTVSS
VL: DIQLTQSPTFLSASVGDRVTITCSASTSVSYMEWYQQKPGKAPKILIYTTSKLASGVPSRFSGSGSGTEYTLTISSLQPEDFATYYCHQWRNYPFTFGQGTKLEIK
notes: Human IgG4Pro (S228P) and human Igkappa constant regions; tested as culture supernatant; also called HT/LB

Experiments:
[1] = target: T1, recombinant full-length PcrV protein (1-294) of Pseudomonas aeruginosa (Pseudomonas aeruginosa, in the biotin-labeled form: PEO-maleimide biotin on the cysteine inserted between histidine tag and start codon); assay: surface plasmon resonance analysis, PcrV antigen
T1 construct: also called PcrV antigen; recombinant PcrV; not shown: N-terminal histidine tag encoded by the expression vector (pWE30 [sic] / pQE30)

[2] = target: T1, recombinant full-length PcrV protein …; assay: SPR, BIAcore T100, antibody captured by anti-mouse antibody on CM5 chip, recombinant PcrV as analyte
truncated PcrV (136-233) = target: T2, truncated PcrV (136-233) (Pseudomonas aeruginosa); assay: Western blotting: purified recombinant truncated PcrV on SDS-PAGE/PVDF, antibody at 1 ug/mL, labeled anti-mouse IgG, ECL [panel Truncated PcrV (136-233]
T2 construct: also called truncated PcrV protein

[3] = target: T1, recombinant full-length PcrV protein …; assay: surface plasmon resonance analysis, PcrV antigen; remark: listed apart in the source
[4] = target: T1, recombinant full-length PcrV protein …; assay: SPR, BIAcore T-100, culture supernatant, recombinant PcrV (FIG. 13)
[5] = target: T1, recombinant full-length PcrV protein …; assay: surface plasmon resonance analysis (BIAcore T-100), culture supernatant, recombinant PcrV

Binder | Kd [1] [nM] | koff [1] [s⁻¹] | kon [1] [M⁻¹ s⁻¹] | Kd [2] [nM] | binding result (truncated PcrV (136-233)) | Kd [3] [nM] | koff [3] [s⁻¹] | kon [3] [M⁻¹ s⁻¹] | Kd [4] [nM] | koff [5] [s⁻¹] | kon [5] [M⁻¹ s⁻¹]
B1 | 0.38 | 0.00033 | 870000 | – | – | – | – | – | – | – | –
B2 | – | – | – | 0.37 | binds | – | – | – | – | – | –
B3 | 0.49 | 0.00037 | 740000 | – | – | 0.27 | 0.00023 | 850000 | 0.26 | 0.00051 | 2e+06
B4 | – | – | – | – | – | – | – | – | 650 | 0.04 | 62000
